Molecular target: the molecule itself
Test: native MS; MS spectrum of the archaeal α/β assembly mixture (assembled without the 60 °C step), 150 mM ammonium acetate pH 7.5

B1: T. acidophilum 20S proteasome α-ring (α7), tag cleaved (natural protein, Thermoplasma acidophilum)
chain: MQQGQMAYDRAITVFSPDGRLFQVEYAREAVKKGSTALGMKFANGVLLISDKKVRSRLIEQNSIEKIQLIDDYVAAVTSGLVADARVLVDFARISAQQEKVTYGSLVNIENLVKRVADQMQQYTQYGGVRPYGVSLIFAGIDQIGPRLFDCDPAGTINEYKATAIGSGKDAVVSFLEREYKENLPEKEAVTLGIKALKSSLEEGEELKAPEIASITVGNKYRIYDQEEVKKFL
notes: proteasome subunit alpha, Thermoplasma acidophilum; source: E. coli BL21(DE3), purified (HisTrap FF, TEV cleavage), in the assembly mixture
  stoichiometry N: 7

— publication PMC10229617 (Nature Communications, 2023)
